The target in this experiment is HB36.4 I58E displayed on the yeast surface. Description: flow cytometry on cells.

Bounds are passed on as bounds.

Consider “A/Vietnam/1203/2004 (H5N1) hemagglutinin, biotinylated (natural protein)”, for which the net change in specificity (H1 over H5) against HB36.4 was over 30 fold.

The values above are taken from publication PMC3638900.
